No end group written: not given here.
Legend:
Experiment in all cases: Kinase Profiling Assay
Assay type in all cases: biochemical
Details in all cases: peptide 100 μM
mTOR(h) = biological target: T1, mTOR(h) (Homo sapiens, UniProt P42345)
T1 construct: purchased Millipore
In short: (§1)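 Radiometric filter-binding format: cationic substrate takes up labeled phosphate from ATP unless the inhibitor peptide blocks the kinase. Substrate bound to an anionic filter, scintillation-counted, normalized to 100% activity control. Duplicates; part of a 266-kinase selectivity panel for MK2 peptides.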

TAO3(h) = biological target: T2, TAO3(h) (Homo sapiens, UniProt Q9H2K8)
T2 construct: purchased Millipore
T2 sequence (Q9H2K8 1-898): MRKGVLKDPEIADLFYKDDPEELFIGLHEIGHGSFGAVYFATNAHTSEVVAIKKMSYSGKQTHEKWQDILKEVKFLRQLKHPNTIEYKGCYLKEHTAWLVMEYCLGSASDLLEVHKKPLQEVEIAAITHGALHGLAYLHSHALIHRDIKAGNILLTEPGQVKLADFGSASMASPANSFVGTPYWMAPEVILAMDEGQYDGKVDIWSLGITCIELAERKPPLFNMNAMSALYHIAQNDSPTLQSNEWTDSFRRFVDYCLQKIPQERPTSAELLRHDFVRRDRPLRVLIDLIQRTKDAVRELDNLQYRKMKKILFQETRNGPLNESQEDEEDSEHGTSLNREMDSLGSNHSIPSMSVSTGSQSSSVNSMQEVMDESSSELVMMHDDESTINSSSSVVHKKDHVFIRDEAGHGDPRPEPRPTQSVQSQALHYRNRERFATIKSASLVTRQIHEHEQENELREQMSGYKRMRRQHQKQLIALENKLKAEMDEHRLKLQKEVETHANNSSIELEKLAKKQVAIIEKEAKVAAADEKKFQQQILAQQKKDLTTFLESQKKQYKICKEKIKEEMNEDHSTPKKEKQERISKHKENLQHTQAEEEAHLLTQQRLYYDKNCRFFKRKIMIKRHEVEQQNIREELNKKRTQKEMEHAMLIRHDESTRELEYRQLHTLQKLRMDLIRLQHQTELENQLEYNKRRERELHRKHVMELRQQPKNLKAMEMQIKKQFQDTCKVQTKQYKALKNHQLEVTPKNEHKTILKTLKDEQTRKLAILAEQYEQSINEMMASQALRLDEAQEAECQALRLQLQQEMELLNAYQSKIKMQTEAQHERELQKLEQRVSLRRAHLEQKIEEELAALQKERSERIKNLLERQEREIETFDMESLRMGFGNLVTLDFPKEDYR
In short: as §1

EGFR(T790M, L858R)(h) = EGFR(T790M, L858R)(h) (Homo sapiens, UniProt P00533, L858R/T790M)
In short: as §1

Src(1-530)(h) = biological target: T3, Src(1-530)(h) (Homo sapiens, UniProt P12931)
T3 construct: Src(1-530)(h); purchased Millipore
In short: as §1

MSK1(h) = biological target: T4, MSK1(h) (Homo sapiens, UniProt O75582)
T4 construct: purchased Millipore
In short: as §1

TAO2(h) = biological target: T5, TAO2(h) (Homo sapiens, UniProt Q9UL54)
T5 construct: purchased Millipore
T5 sequence (Q9UL54 1-1235): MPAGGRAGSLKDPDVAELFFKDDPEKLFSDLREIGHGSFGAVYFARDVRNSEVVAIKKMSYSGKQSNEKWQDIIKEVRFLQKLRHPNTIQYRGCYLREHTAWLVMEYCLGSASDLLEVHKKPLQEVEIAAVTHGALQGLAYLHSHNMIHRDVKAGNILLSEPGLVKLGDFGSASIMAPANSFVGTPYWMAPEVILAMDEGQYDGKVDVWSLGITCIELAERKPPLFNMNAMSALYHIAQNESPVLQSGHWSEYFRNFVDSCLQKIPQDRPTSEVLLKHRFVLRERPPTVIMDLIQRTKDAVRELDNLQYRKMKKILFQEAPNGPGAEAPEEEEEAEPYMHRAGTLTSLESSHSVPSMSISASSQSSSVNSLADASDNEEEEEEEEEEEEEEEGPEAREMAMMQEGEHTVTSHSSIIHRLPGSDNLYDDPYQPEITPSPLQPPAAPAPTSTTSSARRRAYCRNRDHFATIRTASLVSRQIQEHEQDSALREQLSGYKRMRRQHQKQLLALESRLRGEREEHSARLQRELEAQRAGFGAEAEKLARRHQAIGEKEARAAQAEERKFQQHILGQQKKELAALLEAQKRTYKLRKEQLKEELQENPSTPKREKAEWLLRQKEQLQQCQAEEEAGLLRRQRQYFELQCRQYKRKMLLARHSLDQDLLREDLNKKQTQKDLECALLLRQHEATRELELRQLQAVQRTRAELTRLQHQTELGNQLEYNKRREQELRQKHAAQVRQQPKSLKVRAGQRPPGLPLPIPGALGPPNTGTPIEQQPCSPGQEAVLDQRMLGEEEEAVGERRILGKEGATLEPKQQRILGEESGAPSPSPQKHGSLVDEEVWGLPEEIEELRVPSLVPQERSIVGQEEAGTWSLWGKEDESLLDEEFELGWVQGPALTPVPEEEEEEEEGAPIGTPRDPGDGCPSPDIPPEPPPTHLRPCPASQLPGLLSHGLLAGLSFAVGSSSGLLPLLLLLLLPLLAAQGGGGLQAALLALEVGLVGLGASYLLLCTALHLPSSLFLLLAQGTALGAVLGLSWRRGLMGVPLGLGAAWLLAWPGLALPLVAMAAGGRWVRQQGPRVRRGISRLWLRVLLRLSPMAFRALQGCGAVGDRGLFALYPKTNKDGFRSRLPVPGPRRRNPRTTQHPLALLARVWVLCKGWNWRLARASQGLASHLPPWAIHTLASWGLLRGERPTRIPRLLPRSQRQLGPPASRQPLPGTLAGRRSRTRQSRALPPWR
In short: as §1

PKCα(h) = PKCα(h) (Homo sapiens, UniProt P17252)
In short: as §1

Met(Y1248C)(h) = biological target: T6, Met(Y1248C)(h) (Homo sapiens, UniProt P08581, Y1230C)
T6 construct: purchased Millipore
In short: as §1

ROCK-II(h) = ROCK-II(h) (Homo sapiens, UniProt O75116)
In short: as §1

MEK1(h) = biological target: T7, MEK1(h) (Homo sapiens, UniProt Q02750)
T7 construct: purchased Millipore
In short: as §1

PKCη(h) = PKCη(h) (Homo sapiens, UniProt P24723)
In short: as §1

PKCη(h), sequence (P24723 whole entry): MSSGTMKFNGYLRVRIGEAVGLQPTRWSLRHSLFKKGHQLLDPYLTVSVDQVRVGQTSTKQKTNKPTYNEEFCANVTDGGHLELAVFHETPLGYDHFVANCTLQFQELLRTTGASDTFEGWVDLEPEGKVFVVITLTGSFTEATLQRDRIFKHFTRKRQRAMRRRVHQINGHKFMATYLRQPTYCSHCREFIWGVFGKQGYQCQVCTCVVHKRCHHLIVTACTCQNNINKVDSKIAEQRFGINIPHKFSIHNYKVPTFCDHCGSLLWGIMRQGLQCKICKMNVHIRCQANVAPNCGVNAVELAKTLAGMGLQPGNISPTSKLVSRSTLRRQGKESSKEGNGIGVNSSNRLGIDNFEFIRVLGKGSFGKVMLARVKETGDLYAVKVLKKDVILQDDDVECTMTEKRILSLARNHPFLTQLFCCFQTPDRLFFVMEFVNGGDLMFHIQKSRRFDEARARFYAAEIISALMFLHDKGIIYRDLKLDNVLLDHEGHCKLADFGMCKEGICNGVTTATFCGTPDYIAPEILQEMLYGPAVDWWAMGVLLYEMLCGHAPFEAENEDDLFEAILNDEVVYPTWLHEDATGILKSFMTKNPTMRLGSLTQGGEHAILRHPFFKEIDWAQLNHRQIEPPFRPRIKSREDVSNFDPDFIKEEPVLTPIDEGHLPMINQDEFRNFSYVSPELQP
ROCK-II(h), sequence (O75116 whole entry): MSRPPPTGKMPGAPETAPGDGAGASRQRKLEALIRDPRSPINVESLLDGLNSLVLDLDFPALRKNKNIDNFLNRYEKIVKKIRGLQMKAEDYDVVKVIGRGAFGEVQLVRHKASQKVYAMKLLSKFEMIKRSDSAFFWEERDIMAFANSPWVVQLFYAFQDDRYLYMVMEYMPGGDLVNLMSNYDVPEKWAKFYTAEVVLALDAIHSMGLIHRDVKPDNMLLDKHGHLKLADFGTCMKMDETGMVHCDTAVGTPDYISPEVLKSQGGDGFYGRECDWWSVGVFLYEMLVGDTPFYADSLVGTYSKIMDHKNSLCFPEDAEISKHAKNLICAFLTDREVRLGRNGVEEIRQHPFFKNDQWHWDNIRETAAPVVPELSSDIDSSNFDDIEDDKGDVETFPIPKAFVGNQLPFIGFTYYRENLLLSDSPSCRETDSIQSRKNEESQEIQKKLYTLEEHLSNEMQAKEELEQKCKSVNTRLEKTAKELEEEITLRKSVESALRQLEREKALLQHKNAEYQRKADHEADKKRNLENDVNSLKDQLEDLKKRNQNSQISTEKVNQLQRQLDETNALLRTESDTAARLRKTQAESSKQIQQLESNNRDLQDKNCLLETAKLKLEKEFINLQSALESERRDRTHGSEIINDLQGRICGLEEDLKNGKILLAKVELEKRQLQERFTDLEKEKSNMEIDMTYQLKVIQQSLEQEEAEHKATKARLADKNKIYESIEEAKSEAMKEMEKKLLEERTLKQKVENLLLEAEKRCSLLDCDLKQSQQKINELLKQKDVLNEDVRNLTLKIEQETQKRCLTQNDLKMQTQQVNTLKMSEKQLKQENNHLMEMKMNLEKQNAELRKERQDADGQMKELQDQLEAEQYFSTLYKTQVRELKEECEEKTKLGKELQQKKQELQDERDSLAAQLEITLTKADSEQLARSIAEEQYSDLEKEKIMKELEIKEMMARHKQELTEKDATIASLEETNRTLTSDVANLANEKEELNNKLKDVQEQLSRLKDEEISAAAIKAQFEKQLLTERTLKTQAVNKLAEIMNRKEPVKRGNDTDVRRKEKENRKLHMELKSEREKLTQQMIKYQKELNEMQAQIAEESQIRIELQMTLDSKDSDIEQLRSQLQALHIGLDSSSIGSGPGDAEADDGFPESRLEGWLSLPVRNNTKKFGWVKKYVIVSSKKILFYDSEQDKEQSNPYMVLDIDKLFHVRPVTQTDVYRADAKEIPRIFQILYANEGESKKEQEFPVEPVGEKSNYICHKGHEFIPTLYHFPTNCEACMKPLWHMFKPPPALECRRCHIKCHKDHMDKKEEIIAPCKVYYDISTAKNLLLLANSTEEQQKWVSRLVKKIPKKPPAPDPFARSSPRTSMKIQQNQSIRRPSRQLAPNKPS
T4 sequence (O75582 whole entry): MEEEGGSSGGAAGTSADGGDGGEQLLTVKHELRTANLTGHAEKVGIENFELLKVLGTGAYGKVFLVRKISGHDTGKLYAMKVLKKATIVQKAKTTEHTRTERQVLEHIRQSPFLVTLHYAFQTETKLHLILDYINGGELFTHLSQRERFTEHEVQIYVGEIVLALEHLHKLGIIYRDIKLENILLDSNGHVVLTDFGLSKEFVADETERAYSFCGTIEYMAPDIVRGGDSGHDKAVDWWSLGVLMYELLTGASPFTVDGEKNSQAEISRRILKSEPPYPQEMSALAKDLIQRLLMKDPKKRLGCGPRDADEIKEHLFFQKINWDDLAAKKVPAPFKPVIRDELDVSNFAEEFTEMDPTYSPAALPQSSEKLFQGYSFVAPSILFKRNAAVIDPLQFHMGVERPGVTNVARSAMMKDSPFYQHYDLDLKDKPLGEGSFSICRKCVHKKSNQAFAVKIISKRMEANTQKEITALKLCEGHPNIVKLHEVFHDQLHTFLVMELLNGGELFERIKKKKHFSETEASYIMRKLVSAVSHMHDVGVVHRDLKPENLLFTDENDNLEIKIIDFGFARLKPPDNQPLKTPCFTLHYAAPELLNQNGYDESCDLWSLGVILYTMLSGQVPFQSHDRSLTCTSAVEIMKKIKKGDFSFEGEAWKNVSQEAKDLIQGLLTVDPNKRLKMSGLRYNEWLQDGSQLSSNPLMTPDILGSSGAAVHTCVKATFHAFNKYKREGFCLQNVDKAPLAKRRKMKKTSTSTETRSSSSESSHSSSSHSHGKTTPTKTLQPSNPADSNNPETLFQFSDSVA

Row | Sequence | % activity (mTOR(h)) | % activity (TAO3(h)) | % activity (EGFR(T790M, L858R)(h)) | % activity (Src(1-530)(h)) | % activity (MSK1(h)) | % activity (TAO2(h)) | % activity (PKCα(h)) | % activity (Met(Y1248C)(h)) | % activity (ROCK-II(h)) | % activity (MEK1(h)) | % activity (PKCη(h))
1 | FAKLAARLYRKALARQLGVAA [MMI-0300] | 91% | 77% | 85% | 23% | 32% | 70% | 89% | 84% | 74% | 77% | 
2 | HRRIKAWLKKIKALARQLGVAA (Mammal) [MMI-0500] | 135% | 12% | 53% | 21% | 8% | 15% | 3% | 73% | 2% | 21% | 45%
3 | KAFAKLAARLYRKALARQLGVAA [MMI-0400] | 93% | 67% | 78% | 19% | 28% | 74% | 86% | 36% | 77% | 77% | 98%
4 | YARAAARQARAKALARQLGVAA [MMI-0100] |  | 45% |  |  |  | 95% |  | 77% |  |  | 
5 | YARAAARQARAKALNRQLGVA (Mammal) [MMI-0200] | 110% |  | 108% | 75% | 50% | 93% | 100% | 141% | 85% |  | 101%

— US20150258192A1, “COMPOSITIONS AND METHODS FOR PREVENTING OR TREATING CHRONIC LUNG ALLOGRAFT DYSFUNCTION (CLAD) AND IDIOPATHIC PULMONARY FIBROSIS (IPF)” (priority 2014, published 2015)
